Results: patent publication US20250320312A1 (OXITOPE PHARMA B V, published 2025)
Numbering of substitutions follows the chain as printed.

B1: PcOxP_DB01_C08 (scFv, V domains shown)
VH: EVQLLESGGGLVQPGGSLRLSCAASGFTFSDGYMEWVRQAPGKGLEWVAASRNKANDYTTEYADSVKGRFTISRDNSKNTLYLQMNSLRAEDTAVYYCARDYYASSYWYFDVWGQGTLVTVSS
VL: DIQMTQSPSSLSASVGDRVTITCRASESISSSKNKVHYLAWYQQKPGKAPKLLIYGASNRYYGVPSRFSGSGSGTDFTLTISSLQPEDFATYYCAQFYSYPLTFGGGTKVEIK
notes: scFv in periplasmic extract
B2: PcOxP_DB01_D05 (scFv, V domains shown)
VH: B1 VH with A104G, S106P
VL: B1 VL with R24T, I29L, S30Y, N34H, Y62V
notes: scFv in periplasmic extract
B3: PcOxP_DB02_A09 (scFv, V domains shown)
VH: B1 VH with G32T, A104G
VL: B1 VL with R24T, I29L, S30Y, N34H, Y61Q, Y62S, S99W
notes: scFv in periplasmic extract
B4: PcOxP_DB02_A10 (scFv, V domains shown)
VH: B1 VH with T28A, G32F, A104G
VL: B1 VL with R24T, I29L, S30Y, N34H, Y61Q, Y62S, S99A
notes: scFv in periplasmic extract
B5: PcOxP_DB01_F10 (scFv, V domains shown)
VH: B1 VH with D31S, G32Y, A104G
VL: B1 VL with R24T, I29L, S30Y, N34H, R60G, Y62I, S99T
notes: scFv in periplasmic extract
B6: PcOxP_DB01_C12 (scFv, V domains shown)
VH: B1 VH with G32F, Y62L, A104G
VL: B1 VL with R24T, I29L, S30Y, N34H, S58A, Y62I, S99V
notes: scFv in periplasmic extract
B7: PcOxP_DB02_B02 (scFv, V domains shown)
VH: B1 VH with G32Y, K54S, A55G, A104G
VL: B1 VL with R24T, I29L, S30Y, N34H, Y61L, Y62I, S99W
notes: scFv in periplasmic extract
B8: PcOxP_DB01_E06 (scFv, V domains shown)
VH: B1 VH with G32Q, A104G, V112L
VL: B1 VL with R24T, I29L, S30Y, N34H, L39V, Y62I, S99Y
notes: scFv in periplasmic extract
B9: PcOxP_DB01_D09 (scFv, V domains shown)
VH: B1 VH with F29E, G32F, A104G
VL: B1 VL with R24T, I29L, S30Y, S32A, N34H, A57S, Y62I, S99D
notes: scFv in periplasmic extract
B10: PcOxP_DB01_G09 (scFv, V domains shown)
VH: B1 VH with G32Y, D57T, A104G
VL: B1 VL with R24T, I29L, S30Y, N34H, R60L, Y62S
notes: scFv in periplasmic extract
B11: PcOxP_DB01_E11 (scFv, V domains shown)
VH: B1 VH with G32F, T59V, A104G
VL: B1 VL with R24T, E27F, I29L, S30Y, N34H, Y62P, S99Y
notes: scFv in periplasmic extract
B12: PcOxP_DB01_H10 (scFv, V domains shown)
VH: B1 VH with A55N, A104G
VL: B1 VL with R24T, I29L, S30Y, N34H, Y62F, S99Q
notes: scFv in periplasmic extract
B13: PcOxP_DB02_A11 (scFv, V domains shown)
VH: B1 VH with K54I, A104G
VL: B1 VL with R24T, I29L, S30Y, N34H, Y62H, S99Y
notes: scFv in periplasmic extract
B14: PcOxP_DB01_E04 (scFv, V domains shown)
VH: B1 VH with G32A, A104G, V112T
VL: B1 VL with R24T, I29L, S30Y, N34H, Y62D
notes: scFv in periplasmic extract
B15: PcOxP_DB02_A12 (scFv, V domains shown)
VH: B1 VH with G32D, Y103Q, A104G
VL: B1 VL with R24T, I29L, S30Y, N34H, S58F, Y62T, S99T
notes: scFv in periplasmic extract
B16: PcOxP_DB02_A06 (scFv, V domains shown)
VH: B1 VH with G32Q, A104G
VL: B1 VL with R24T, I29L, S30Y, N34H, A57L, Y62I
notes: scFv in periplasmic extract
B17: PcOxP_DB01_D08 (scFv, V domains shown)
VH: B1 VH with G32A, A104G, V112S
VL: B1 VL with R24T, I29L, S30Y, N34H, Y62I
notes: scFv in periplasmic extract
B18: PcOxP_DB01_G01 (scFv, V domains shown)
VH: B1 VH with F29G, G32F, A55G, D57S, A104G
VL: B1 VL with R24T, I29L, S30Y, S31G, N34H, Y62S
notes: scFv in periplasmic extract
B19: PcOxP_DB01_E05 (scFv, V domains shown)
VH: B1 VH with G32Y, A104G
VL: B1 VL with R24T, I29L, S30Y, N34H, H37N, Y62I, S99Q
notes: scFv in periplasmic extract
B20: PcOxP_DB01_D02 (scFv, V domains shown)
VH: B1 VH with T28E, G32F, N53G, A55G, D57S, A104G
VL: B1 VL with R24T, I29L, S30Y, N34H, Y62I, A95G
notes: scFv in periplasmic extract
B21: PcOxP_DB01_G12 (scFv, V domains shown)
VH: B1 VH with A104G
VL: B1 VL with R24T, I29L, S30Y, N34H, Y62F
notes: scFv in periplasmic extract
B22: PcOxP_DB01_G11 (scFv, V domains shown)
VH: B1 VH with A55N, Y103F, A104G
VL: B1 VL with R24T, I29L, S30Y, N34H, Y62I
notes: scFv in periplasmic extract
B23: PcOxP_DB01_H04 (scFv, V domains shown)
VH: B1 VH with T28A, G32F, A104G, S106H
VL: B1 VL with R24T, I29L, S30Y, N34H, R60L, Y61Q, Y62S, S99Y
notes: scFv in periplasmic extract
B24: PcOxP_DB01_F04 (scFv, V domains shown)
VH: B1 VH with D31S, G32Y, A55Y, A104G
VL: B1 VL with R24T, I29L, S30Y, N34H, S58V, Y62I, S99R
notes: scFv in periplasmic extract

Molecular target: T1, Peptide 4: Biotin-AGGGGSGGGGSGGGGSAAA-Tyr-acid (N-terminal biotin; C-terminal acid)
T1 construct: control peptide without PC
T1 peptide: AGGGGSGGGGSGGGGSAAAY
Assay: scFv ELISA
Method: (§1) For ELISA analysis of scFv binding, 96-well polystyrene plates were coated with Peptide 1, 4, 5, 8 or 100 μL BSA (10 μg/mL) in PBS at 4° C. overnight. Plates were washed three times with PBS-Tween and blocked with 100 μL 1% BSA-TBS for 1 hour at room temperature. 96-well streptavidin coated plates were coated with 100 μL biotinylated PC-peptides (1 μg/mL) in PBS for 1 hour at room temperature.
(§2) All plates were washed three times with PBS-Tween before 40 μL aliquots of PPE were added to assay plates along with 50 μL 10% BSA, and plates were incubated for 1 hour at room temperature. After washing, […] HRP conjugated anti-V5 in 5% BSA was added, and plates were incubated at room temperature for 30 mins. Plates were washed and 100 μL TMB substrate was added. Color was left to develop at room temperature before the reaction was stopped with 100 μL 1N HCl. The amount of scFv bound to each well was quantitated from absorbance measurement at 450 nm (OD450).

Binder | OD450 [OD450]
B1 | 0.06
B2 | 0.06
B3 | 0.05
B4 | 0.05
B5 | 0.05
B6 | 0.05
B7 | 0.05
B8 | 0.05
B9 | 0.05
B10 | 0.06
B11 | 0.05
B12 | 0.06
B13 | 0.04
B14 | 0.05
B15 | 0.05
B16 | 0.05
B17 | 0.05
B18 | 0.06
B19 | 0.06
B20 | 0.05
B21 | 0.07
B22 | 0.06
B23 | 0.07
B24 | 0.05

Molecular target: T2, Peptide 8: Biotin-AEAAAKEAAAKEAAAKEAAAKAAA-Tyr-acid (N-terminal biotin; C-terminal acid)
T2 construct: control peptide without PC
T2 peptide: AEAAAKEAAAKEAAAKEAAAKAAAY
Assay: scFv ELISA
Method: as §1, §2

Binder | OD450 [OD450]
B1 | 0.05
B2 | 0.05
B3 | 0.04
B4 | 0.04
B5 | 0.05
B6 | 0.05
B7 | 0.05
B8 | 0.05
B9 | 0.05
B10 | 0.05
B11 | 0.06
B12 | 0.06
B13 | 0.04
B14 | 0.04
B15 | 0.06
B16 | 0.05
B17 | 0.05
B18 | 0.05
B19 | 0.06
B20 | 0.05
B21 | 0.06
B22 | 0.06
B23 | 0.07
B24 | 0.05

molecular target: BSA (UniProt P02769); assay: scFv ELISA
Sequence (P02769 25-607 limits assumed): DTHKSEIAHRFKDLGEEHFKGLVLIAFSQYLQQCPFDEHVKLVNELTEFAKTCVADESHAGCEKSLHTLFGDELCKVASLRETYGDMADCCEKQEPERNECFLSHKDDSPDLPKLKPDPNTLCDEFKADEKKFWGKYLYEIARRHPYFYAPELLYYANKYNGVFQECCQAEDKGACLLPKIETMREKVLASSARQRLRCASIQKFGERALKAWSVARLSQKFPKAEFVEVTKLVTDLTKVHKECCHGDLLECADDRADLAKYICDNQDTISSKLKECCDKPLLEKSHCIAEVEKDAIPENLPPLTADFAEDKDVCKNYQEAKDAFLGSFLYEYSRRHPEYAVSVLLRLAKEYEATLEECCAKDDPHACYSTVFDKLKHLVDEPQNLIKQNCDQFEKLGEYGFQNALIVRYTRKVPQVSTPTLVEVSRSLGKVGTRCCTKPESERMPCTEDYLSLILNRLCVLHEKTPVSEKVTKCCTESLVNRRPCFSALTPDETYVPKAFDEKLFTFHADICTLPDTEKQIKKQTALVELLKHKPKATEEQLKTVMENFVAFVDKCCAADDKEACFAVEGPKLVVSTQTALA

Binder | OD450 [OD450]
B1 | 0.1
B2 | 0.1
B3 | 0.11
B4 | 0.11
B5 | 0.09
B6 | 0.08
B7 | 0.11
B8 | 0.09
B9 | 0.07
B10 | 0.11
B11 | 0.09
B12 | 0.08
B13 | 0.09
B14 | 0.07
B15 | 0.06
B16 | 0.1
B17 | 0.08
B18 | 0.09
B19 | 0.11
B20 | 0.09
B21 | 0.09
B22 | 0.09
B23 | 0.11
B24 | 0.09

molecular target: Peptide 5: Biotin-…-[Tyr(PC)]-acid; assay: scFv ELISA

Binder | OD450 [OD450]
B1 | 0.79
B2 | 1.56
B3 | 1.3
B4 | 0.9
B5 | 0.98
B6 | 1.18
B7 | 0.98
B8 | 1.05
B9 | 0.66
B10 | 1.4
B11 | 0.73
B12 | 1.39
B13 | 0.89
B14 | 1.12
B15 | 0.27
B16 | 1.07
B17 | 1.08
B18 | 1.33
B19 | 1.39
B20 | 1.27
B21 | 1.33
B22 | 1.32
B23 | 1.92
B24 | 0.57

molecular target: Peptide 1: Biotin-…-[Tyr(PC)]-acid; assay: scFv ELISA

Binder | OD450 [OD450]
B1 | 0.38
B2 | 0.87
B3 | 0.98
B4 | 0.42
B5 | 0.68
B6 | 0.88
B7 | 0.49
B8 | 0.68
B9 | 0.27
B10 | 0.92
B11 | 0.62
B12 | 0.6
B13 | 0.64
B14 | 0.55
B15 | 0.2
B16 | 1.12
B17 | 0.58
B18 | 0.58
B19 | 0.95
B20 | 0.56
B21 | 0.75
B22 | 0.99
B23 | 2.01
B24 | 0.36
